Results: patent US20060067886A1, “Gastrin receptor-avid peptide conjugates” (priority 1997, published 2006)

Assay: Biodistribution of radiometal-DOTA-BBN conjugates in CF1 normal mice
Conditions: 1 hour post-injection

Row | Compound | Avg % ID, Carcass [% ID] | Avg % ID, Heart [% ID] | Avg % ID, Liver [% ID] | Avg % ID, Lung [% ID] | Avg % ID, Muscle [% ID] | Avg % ID, S. Intestine [% ID] | Avg % ID, Spleen [% ID] | Avg % ID, Stomach [% ID] | Avg % ID/gm, Heart [% ID/gm] | Avg % ID/gm, Liver [% ID/gm] | Avg % ID/gm, Muscle [% ID/gm] | Avg % ID/gm, S. Intestine [% ID/gm] | Avg % ID/gm, Spleen [% ID/gm] | Avg % ID/gm, Stomach [% ID/gm] | also measured
1 | CSCC[C@H](NC(=O)[C@H](CC(C)C)NC(=O)[C@H](Cc1c[nH]cn1)NC(=O)CNC(=O)[C@@H](NC(=O)[C@H](C)NC(=O)[C@H](Cc1c[nH]c2ccccc12)NC(=O)[C@H](CCC(N)=O)NC(=O)CCCCNC(=O)CN1CCN(CC(=O)O)CCN(CC(=O)O)CCN(CC(=O)O)CC1)C(C)C)C(N)=O [111In-DOTA-5-Ava-BBN[7-14]NH2] [metal not drawn] | 3.15 ± 0.70 | 0.02 ± 0.01 | 0.26 ± 0.03 | 0.04 ± 0.01 | 0.01 ± 0.01 | 0.11 ± 0.04 | 0.11 ± 0.04 | 0.37 ± 0.16 | 0.10 ± 0.04 | 0.16 ± 0.02 | 0.05 ± 0.02 | 3.49 ± 0.87 | 0.87 ± 0.28 | 0.71 ± 0.24 | 
2 | CSCC[C@H](NC(=O)[C@H](CC(C)C)NC(=O)[C@H](Cc1cnc[nH]1)NC(=O)CNC(=O)[C@@H](NC(=O)[C@H](C)NC(=O)[C@H](Cc1c[nH]c2ccccc12)NC(=O)[C@H](CCC(N)=O)NC(=O)CCNC(=O)CN1CCN(CC(=O)O)CCN(CC(=O)O)CCN(CC(=O)O)CC1)C(C)C)C(N)=O [149Pm-DOTA-β-Ala-BBN[7-14]NH2] | 1.64 ± 0.38 | 0.02 ± 0.02 | 0.23 ± 0.07 | 0.06 ± 0.04 | 0.00 ± 0.01 | 0.95 ± 0.19 | 0.02 ± 0.04 | 0.10 ± 0.03 | 0.17 ± 0.24 | 0.15 ± 0.05 | 0.04 ± 0.10 | 0.63 ± 0.20 | 0.16 ± 0.31 | 0.19 ± 0.11 | Avg % ID, Blood: 0.30 ± 0.32 % ID; Avg % ID, Kidney: 0.61 ± 0.41 % ID; Avg % ID, L. Intestine: 0.31 ± 0.06 % ID; Avg % ID, Pancreas: 0.46 ± 0.23 % ID; Avg % ID/gm, Blood: 0.21 ± 0.22 % ID/gm; Avg % ID/gm, Kidney: 2.05 ± 1.63 % ID/gm; Avg % ID/gm, L. Intestine: 0.42 ± 0.08 % ID/gm; Avg % ID/gm, Lung: 0.34 ± 0.30 % ID/gm; Avg % ID/gm, Pancreas: 2.40 ± 1.33 % ID/gm
